B1: unfused BIL1/BZR1 DBD (21–104), pretreated with the reductant DTT (domain or fragment, A. thaliana, UniProt Q8S307 21-104, looked up)
chain: ARRKPSWRERENNRRRERRRRAVAAKIYTGLRAQGDYNLPKHCDNNEVLKALCVEAGWVVEEDGTTYRKGCKPLPGEIAGTSSR
notes: also called reduced BIL1/BZR1 DBD; source: expressed and purified as described previously [9, 14, 21]; SEC into reductant-free buffer
B2: mutated maltose-binding protein (mMBP)-Ala-BIL1/BZR1 DBD (amino acids 21–104) (domain or fragment, A. thaliana, UniProt Q8S307 21-104, looked up)
chain: B1 chain
notes: protomers 1 and 2 are chains C and D of the deposited entries; Co-crystallised with E-box DNA fragments; also called mMBP-fused BIL1/BZR1 DBD; mMBP-BIL1/BZR1 (21–104); source: expressed and purified as described previously [9, 14, 21]; SEC

Key:
[1] = target: the molecule itself; assay: SEC; unfused BIL1/BZR1 DBD pretreated with DTT; Superdex 75 10/300 GL Increase; reductant-free buffer 20 mM Tris/HCl pH 8.0, 1 M NaCl, 10% glycerol
[2] = target: the molecule itself; assay: crystal structure; mMBP-Ala-BIL1/BZR1 DBD co-crystallised with DNA fragments containing E-box variants (CATATG or CAGCTG); sitting drop, 293 K, 50 mM sodium cacodylate pH 6.5, 0.2 M KCl, 0.01 M MgCl2, 10% PEG 4000

Protein	binding result [1]	binding result [2]
B1	binds	–
B2	–	binds

From paper PMC12668046, “Single cis‐elements in brassinosteroid‐induced upregulated genes are insufficient to recruit both redox states of the BIL1/BZR1 DNA‐binding domain” (Febs Letters, 2025)
